The data set concerns the molecule itself. The data set is described as follows: SEC-MALS; Protein KW.802.5 (Shodex) column, 1 mL/min, 50 mM TRIS/HCl, 500 mM NaCl, pH 8.0; protein conjugate analysis.

B1: AGR-124 (human agrin y4z19, FS9-LG3 domains, Ala893-Pro2068) (domain or fragment)
chain: not shown
modifications: glycans (limited N-linked, presumably O-linked) contributing around 10% of the total mass
notes: human agrin y4z19, 9th FS domain to the last LG domain (FS9-LG3), Ala893-Pro2068; codon-optimized synthetic gene; Tag removed with TEV protease; also called agrin-like AGR-124 substrate; source: SFM-HEK293 suspension cells, transient transfection; purified from the medium (Ni-IMAC, heparin, SEC); not shown: 6xHis, N-terminal, cleaved
With B1, the binding result was “binds”.
